Results: article PMC10593786 (Nature Communications, 2023)

B1: Myo6 ^YFPCBD (WT) (domain or fragment, mouse, UniProt Q64331 1032-1262, looked up)
chain: MALRRGPAVQATKAAAGTKKHDLSKWKYAELRDTINTSCDIELLAACREEFHRRLKVYHAWKSKNKKRNTETEQRAPKSVTDYDFAPFLNNSPQQNPAAQLPARQQEIDMKRQQRFFRIPFIRPADQYKDPQNKKKGWWYAHFDGPWIARQMELHPDKPPILLVAGKDDMEMCELNLEETGLTRKRGAEILPRQFEEIWERCGGIQYLQSAIESRQARPTYATAMLQNLLK
notes: The results call it CBD^1035-end, the methods give M1032; also called Myo6 CBD; CBD^1035-end; source: E. coli BL21 (DE3), purified (HisTrap IMAC, SEC); not shown: YFP, N-terminal, kept
B2: ^HisTOM1 (His-TOM1 207-492) (domain or fragment)
chain: DTPIAPTPEQIGKLRSELEMVSGNVRVMSEMLTELVPTQAEPADLELLQELNRTCRAMQQRVLELIPQIANEQLTEELLIVNDNLNNVFLRHERFERFRTGQTTKAPSEAEPAADLIDMGPDPAATGNLSSQLAGMNLGSSSVRAGLQSLEASGRLEDEFDMFALTRGSSLADQRKEVKYEAPQATDGLAGALDARQQSTGAIPVTQACLMEDIEQWLSTDVGNDAEEPKGVTSEEFDKFLEERAKAADRLPNLSSPSAEGPPGPPSGPAPRKKTQEKDDDMLFAL
notes: human TOM1 residues 207-end (207-492); The ATPase assays used His-YFP-TOM1 436-461, the MNT-1 assays ^mCherryMST-TOM1 (299-end); also called TOM1 207-end; source: E. coli BL21 (DE3), purified (IMAC, SEC); not shown: His6, N-terminal, kept

Columns and labels:
[1] = molecular target: B2; test: MST; ^YFPCBD kept at 100 nM, Myo6 partner titrated (16 two-fold dilutions), 25 °C, 20 mM Bis-Tris pH 6.5, 100 mM KCl, 1 mM DTT, 0.05% Tween-20; details: both partners purified
[2] = molecular target: T1, Myo6 MD^Ins2/IQ/3HB (1-917) ( | human, UniProt Q29122 1-917; P0DP23 1-149); test: MST; ^YFPCBD kept at 100 nM, Head sample titrated (16 two-fold dilutions), 25 °C, 20 mM Hepes pH 7.5, 50 mM NaCl, 2.5 mM MgCl2, 1 mM TCEP, 0.05% Tween-20, with 2 mM MgADP and 2 mM Na3VO4 (motor state ADP.VO4); details: both partners purified
T1 construct: also called Myo6-917; Myo6 Head fragment

Myo6 MD^Ins2 (2-816) = molecular target: T2, Myo6 MD^Ins2 (2-816) ( | human, UniProt Q29122 2-816; P0DP23 1-149); test: as above; details: both partners purified
T2 construct: also called Tail-less construct

Myo6 MD (1-789) = molecular target: T3, Myo6 MD (1-789) (UniProt Q29122 1-789); test: as above; details: both partners purified
T3 construct: myosin VI (Myo6) residues 1-789: Motor domain; also called Motor domain; source: Sf9/baculovirus, co-infected with human CaM virus, purified (anti-Flag resin)

[3] = molecular target: T1, Myo6 MD^Ins2/IQ/3HB (1-917); test: MST; ^YFPCBD kept at 100 nM, Head sample titrated (16 two-fold dilutions), 25 °C, 20 mM Hepes pH 7.5, 50 mM NaCl, 2.5 mM MgCl2, 1 mM TCEP, 0.05% Tween-20, nucleotide-free (motor state NF); details: both partners purified
FLMyo6 SI (SAHmimic) = molecular target: T4, FLMyo6 SI (SAHmimic) (human, UniProt Q9UM54-2 1-1262; P0DP23 1-149, Glu922 to Glu935 (EAERLRRIQEEMEK) replaced with EERKRREEEERKKREEE); test: pull-down; anti-His pull-down on Ni2+ beads, His-partner and FLMyo6 SI (SAHmimic) 1/1 (10 µM), 1 µM extra calmodulin, 4 °C; which of the three buffers is not given; details: both partners purified
T4 construct: also called FLMyo6 (SAHmimic)

[4] = molecular target: T5, full-length wild-type Myo6, small insert isoform (FLMyo6 SI (WT)) (human, UniProt Q9UM54-2 1-1262; P0DP23 1-149); test: pull-down; details: both partners purified
T5 construct: also called FLMyo6 (WT)

Myo6 ^YFPCBD (WT) [5] = molecular target: B1; test: MST; ^YFPCBD kept at 100 nM, Myo6 partner titrated (16 two-fold dilutions), 25 °C, 20 mM Bis-Tris pH 6.5, 100 mM KCl, 1 mM DTT, 0.05% Tween-20; details: both partners purified
[6] = molecular target: the molecule itself; test: SEC-MALS; fragments of the 3HB/SAH junction on Superdex 200 10/300 Increase, 0.5 mL/min; titration; apparent KD, dimer to monomers
[7] = molecular target: the molecule itself; test: SEC-MALS; injection of 50 µL at 10 mg/mL in 10 mM Tris-HCl pH 7.5, 50 mM NaCl, 5 mM NaN3, 0.5 mM TCEP; peak concentration by the in-line refractometer
Myo6 ^YFPCBD (WT) [8] = molecular target: B1; test: MST; ^YFPCBD kept at 100 nM, Ins2/IQ/3HB titrated (16 two-fold dilutions), 25 °C, 20 mM Hepes pH 7.5, 50 mM NaCl, 2.5 mM MgCl2, 1 mM TCEP, 0.05% Tween-20; motor state '-' (no Motor domain); details: both partners purified

T3 sequence (Q29122 1-789): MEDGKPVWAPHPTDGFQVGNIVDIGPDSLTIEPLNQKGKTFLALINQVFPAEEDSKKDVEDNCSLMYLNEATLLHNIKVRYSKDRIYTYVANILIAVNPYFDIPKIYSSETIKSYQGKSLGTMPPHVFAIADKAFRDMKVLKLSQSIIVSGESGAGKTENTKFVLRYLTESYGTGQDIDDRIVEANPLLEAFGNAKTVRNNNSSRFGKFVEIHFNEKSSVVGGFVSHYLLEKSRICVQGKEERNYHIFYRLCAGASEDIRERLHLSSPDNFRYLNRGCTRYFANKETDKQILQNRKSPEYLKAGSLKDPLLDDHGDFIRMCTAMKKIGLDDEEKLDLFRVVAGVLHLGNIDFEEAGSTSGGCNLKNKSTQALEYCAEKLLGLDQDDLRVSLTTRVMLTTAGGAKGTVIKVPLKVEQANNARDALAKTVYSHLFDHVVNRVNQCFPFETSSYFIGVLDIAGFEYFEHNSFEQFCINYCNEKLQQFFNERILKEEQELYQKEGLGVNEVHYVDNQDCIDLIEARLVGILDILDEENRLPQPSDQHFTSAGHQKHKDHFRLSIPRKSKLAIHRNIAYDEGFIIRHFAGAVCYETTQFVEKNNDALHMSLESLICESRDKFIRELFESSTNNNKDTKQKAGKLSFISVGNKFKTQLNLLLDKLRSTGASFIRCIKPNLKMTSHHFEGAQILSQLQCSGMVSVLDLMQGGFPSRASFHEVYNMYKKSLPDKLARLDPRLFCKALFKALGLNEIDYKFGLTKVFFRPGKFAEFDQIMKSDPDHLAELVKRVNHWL

B1 was tested, and the binding result [1] was “binds”, the Kd [2] was 144 nM and the Kd (Myo6 MD^Ins2 (2-816)) was 343 nM. For the same binder, the Kd (Myo6 MD (1-789)) was 3920 nM and the Kd [3] was 726 nM.

B2: binds (FLMyo6 SI (SAHmimic)); binds [4].

B3: ^HisGIPC1 (His-rTEV-GIPC1 255-end) (domain or fragment, mouse, UniProt Q9Z0G0 255-333, looked up)
chain: DLPSAFEEKAIEKVDDLLESYMGIRDTELAATMVELGKDKRNPDELAEALDERLGDFAFPDEFVFDVWGAIGDAKVGRY
notes: mouse GIPC1 truncated in the N-terminus at aa D255 to keep only the GH2 domain; The ATPase assays used His-mNeonGreen-GIPC1 238-end, the MNT-1 assays ^mCherryMST-GIPC1 (239-end); also called GH2 domain; source: E. coli BL21 (DE3), purified (IMAC, SEC); not shown: His6, N-terminal, kept
B3: binds (Myo6 ^YFPCBD (WT) [5]).

B4: Myo6 875-940 (N-terminal 6xHis-tag, pET14) (domain or fragment, mouse, UniProt Q64331 875-940, looked up)
chain: EISIDALMAKIKSTMMTREQIQKEYDALVKSSEDLLSALQKKKQQEEEAERLRRIQEEMEKERKRR
notes: mouse myosin VI aa 875-940: 2nd and 3rd helix of the 3HB and first part of the SAH; also called aa 875-940; 875-940 peptide; source: E. coli BL21 (DE3), purified (IMAC, SEC)
Binder B4 has a Kd [6] of roughly 19000 nM.

B5: Myo6 875-940 (his-rTEV-875-940, pProEX-HTb) (domain or fragment, mouse, UniProt Q64331 875-940, looked up)
chain: EISIDALMAKIKSTMMTREQIQKEYDALVKSSEDLLSALQKKKQQEEEAERLRRIQEEMEKERKRR
notes: mouse myosin VI aa 875-940; Made for crystallization; also called Myo6 875-940 WT; 875-940 peptide; source: E. coli BL21 (DE3), purified (IMAC, rTEV, SEC); not shown: His6, N-terminal, cleaved
For B5, the “stoichiometry N” value [7] was 2.

B6: Myo6 Ins2/IQ/3HB (aa 783-917) (domain or fragment, human, UniProt Q9UM54-5 783-917, looked up)
chain: RVNHWLTCSRWKKVQWCSLSVIKLKNKIKYRAEACIKMQKTIRMWLCKRRHKPRIDGLVKVGTLKKRLDKFNEVVSVLKDGKPEMNKQIKNLEISIDTLMAKIKSTMMTQEQIQKEYDALVKSSEELLSALQKKK
notes: human myosin VI, aa 783-917 (insert-2, IQ, 3-helix bundle), from the human FLMyo6 no-insert construct; source: E. coli BL21 (DE3), purified (IMAC, SEC); not shown: His6, N-terminal, cleaved
For B6, the Kd (Myo6 ^YFPCBD (WT) [8]) was 250 nM.
